Measured values from article doi:10.1101/2022.10.27.514150 (bioRxiv, 2022).

Key:
[1] = target: T1, Gluc1-ΔNp73α FL (UniProt O15350-8 1-587); assay: split reporter
T1 sequence (looked up): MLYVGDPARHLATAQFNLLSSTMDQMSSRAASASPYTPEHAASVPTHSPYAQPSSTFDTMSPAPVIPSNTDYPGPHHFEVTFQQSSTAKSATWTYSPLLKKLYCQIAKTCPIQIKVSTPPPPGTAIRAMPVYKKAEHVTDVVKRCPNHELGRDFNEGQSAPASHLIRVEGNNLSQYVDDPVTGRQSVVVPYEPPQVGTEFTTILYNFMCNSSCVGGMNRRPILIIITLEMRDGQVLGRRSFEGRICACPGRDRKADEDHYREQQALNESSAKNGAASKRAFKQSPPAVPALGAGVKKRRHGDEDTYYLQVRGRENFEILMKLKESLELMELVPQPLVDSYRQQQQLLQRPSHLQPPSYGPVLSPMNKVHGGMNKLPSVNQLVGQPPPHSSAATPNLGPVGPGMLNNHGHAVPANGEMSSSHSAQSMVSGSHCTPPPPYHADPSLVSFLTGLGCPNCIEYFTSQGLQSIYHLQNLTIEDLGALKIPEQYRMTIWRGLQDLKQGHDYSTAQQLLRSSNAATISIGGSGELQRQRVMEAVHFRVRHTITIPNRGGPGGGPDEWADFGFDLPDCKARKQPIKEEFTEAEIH

[2] = target: T2, Gluc1-TAp73α (UniProt O15350 1-636); assay: split reporter
T2 sequence (looked up): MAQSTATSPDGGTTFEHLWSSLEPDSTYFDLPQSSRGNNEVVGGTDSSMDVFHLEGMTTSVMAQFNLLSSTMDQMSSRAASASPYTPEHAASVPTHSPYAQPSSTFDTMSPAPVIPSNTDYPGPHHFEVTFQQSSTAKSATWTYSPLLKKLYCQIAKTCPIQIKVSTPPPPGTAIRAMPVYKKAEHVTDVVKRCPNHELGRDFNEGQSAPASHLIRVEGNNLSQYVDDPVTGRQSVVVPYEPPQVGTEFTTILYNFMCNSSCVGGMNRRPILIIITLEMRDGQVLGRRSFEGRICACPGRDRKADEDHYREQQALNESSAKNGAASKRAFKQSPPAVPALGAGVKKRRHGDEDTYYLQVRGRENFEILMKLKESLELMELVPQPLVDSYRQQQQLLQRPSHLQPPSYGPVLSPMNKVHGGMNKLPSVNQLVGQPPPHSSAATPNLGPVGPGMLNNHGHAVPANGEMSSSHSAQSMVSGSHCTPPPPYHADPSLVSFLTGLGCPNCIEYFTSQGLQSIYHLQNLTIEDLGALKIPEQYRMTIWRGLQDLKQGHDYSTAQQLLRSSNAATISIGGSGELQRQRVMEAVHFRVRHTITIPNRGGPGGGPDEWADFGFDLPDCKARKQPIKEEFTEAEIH

[3] = target: T3, Gluc1-ΔN(74–348) (UniProt O15350-8 74-348); assay: split reporter
T3 sequence (looked up): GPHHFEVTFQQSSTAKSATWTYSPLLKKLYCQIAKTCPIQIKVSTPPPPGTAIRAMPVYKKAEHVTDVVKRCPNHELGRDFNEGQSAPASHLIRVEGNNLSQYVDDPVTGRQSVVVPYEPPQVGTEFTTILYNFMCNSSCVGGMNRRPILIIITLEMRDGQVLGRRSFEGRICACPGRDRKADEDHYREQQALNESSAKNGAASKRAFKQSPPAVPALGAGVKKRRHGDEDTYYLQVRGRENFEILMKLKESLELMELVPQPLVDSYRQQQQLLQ

[4] = target: T4, minimal E2F4/DP1 heterodimer (E2F4s/DP1s) (human, UniProt Q16254 84-413; Q14186 199-350); assay: pull-down
T4 sequence (looked up) 1: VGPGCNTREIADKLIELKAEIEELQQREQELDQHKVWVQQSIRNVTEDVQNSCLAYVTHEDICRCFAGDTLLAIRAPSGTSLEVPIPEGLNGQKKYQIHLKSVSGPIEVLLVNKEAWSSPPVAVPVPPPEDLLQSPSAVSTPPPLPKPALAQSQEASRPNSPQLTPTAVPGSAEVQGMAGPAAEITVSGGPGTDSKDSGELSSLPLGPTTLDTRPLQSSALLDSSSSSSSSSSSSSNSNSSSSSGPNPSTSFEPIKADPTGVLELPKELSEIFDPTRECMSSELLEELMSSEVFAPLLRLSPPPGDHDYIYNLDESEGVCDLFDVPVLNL
T4 sequence (looked up) 2: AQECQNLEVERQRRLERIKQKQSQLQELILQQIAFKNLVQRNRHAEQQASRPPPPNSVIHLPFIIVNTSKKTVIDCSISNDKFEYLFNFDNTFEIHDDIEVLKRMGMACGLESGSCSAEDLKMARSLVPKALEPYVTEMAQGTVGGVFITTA

[5] = target: Gluc1-E2F4 (human, UniProt Q16254 1-413); assay: split reporter

B1: Gluc2-E2F(1–336) (domain or fragment)
chain: not shown
- binding relative to ΔNp73α FL/E2F4 FL [1]: 60%

B2: Gluc2-E2F(1–90) (domain or fragment)
chain: not shown
- binding relative to ΔNp73α FL/E2F4 FL [1]: 20%

B3: Gluc2-E2F4 FL (natural protein)
chain: not shown
- binding response relative to ΔNp73α [2]: ~50%
- binding relative to ΔNp73α FL/E2F4 FL [3]: 60%
- normalized luminescence ratio (NLR) [1]: > 20

B4: MBP-ΔN(1-348) (domain or fragment, UniProt O15350-8 1-348, looked up)
chain: MLYVGDPARHLATAQFNLLSSTMDQMSSRAASASPYTPEHAASVPTHSPYAQPSSTFDTMSPAPVIPSNTDYPGPHHFEVTFQQSSTAKSATWTYSPLLKKLYCQIAKTCPIQIKVSTPPPPGTAIRAMPVYKKAEHVTDVVKRCPNHELGRDFNEGQSAPASHLIRVEGNNLSQYVDDPVTGRQSVVVPYEPPQVGTEFTTILYNFMCNSSCVGGMNRRPILIIITLEMRDGQVLGRRSFEGRICACPGRDRKADEDHYREQQALNESSAKNGAASKRAFKQSPPAVPALGAGVKKRRHGDEDTYYLQVRGRENFEILMKLKESLELMELVPQPLVDSYRQQQQLLQ
- binding result [4]: binds

B5: Gluc2-DP1 (natural protein, human, UniProt Q14186 1-410, looked up)
chain: MAKDAGLIEANGELKVFIDQNLSPGKGVVSLVAVHPSTVNPLGKQLLPKTFGQSNVNIAQQVVIGTPQRPAASNTLVVGSPHTPSTHFASQNQPSDSSPWSAGKRNRKGEKNGKGLRHFSMKVCEKVQRKGTTSYNEVADELVAEFSAADNHILPNESAYDQKNIRRRVYDALNVLMAMNIISKEKKEIKWIGLPTNSAQECQNLEVERQRRLERIKQKQSQLQELILQQIAFKNLVQRNRHAEQQASRPPPPNSVIHLPFIIVNTSKKTVIDCSISNDKFEYLFNFDNTFEIHDDIEVLKRMGMACGLESGSCSAEDLKMARSLVPKALEPYVTEMAQGTVGGVFITTAGSTSNGTRFSASDLTNGADGMLATSSNGSQYSGSRVETPVSYVGEDDEEDDDFNENDEDD
- normalized luminescence ratio (NLR) [5]: ~500
